This note sets out measurements from PMC5904407.

The target in assay [1] is Full-length LapA (FL-LapA; residues 1 to 378), minus N-terminal signal sequence (Legionella pneumophila strain 130b). Put plainly: crystal structure.
Assay [2] has as its target Full-length NttD (FL-NttD; residues 1 to 373), minus N-terminal signal sequence (Legionella pneumophila strain 130b). Put plainly: SEC.

For the substance “Full-length LapA (FL-LapA; residues 1 to 378), minus N-terminal signal sequence (enzyme)”, the stoichiometry N in assay [1] amounted to 2.
For the substance “Full-length NttD (FL-NttD; residues 1 to 373), minus N-terminal signal sequence (natural protein)”, the stoichiometry N in assay [2] was determined as 2.

Broadly, the stoichiometry N is a count of units in the complex or per binding partner.
